Measurements published in article PMC8865451 (Journal of Virology, 2021).

Molecular target: hyper-IL-6 (HIL-6)
Assay: SPR

hyper-IL-6 (HIL-6), sequence (A0N0L4 whole entry): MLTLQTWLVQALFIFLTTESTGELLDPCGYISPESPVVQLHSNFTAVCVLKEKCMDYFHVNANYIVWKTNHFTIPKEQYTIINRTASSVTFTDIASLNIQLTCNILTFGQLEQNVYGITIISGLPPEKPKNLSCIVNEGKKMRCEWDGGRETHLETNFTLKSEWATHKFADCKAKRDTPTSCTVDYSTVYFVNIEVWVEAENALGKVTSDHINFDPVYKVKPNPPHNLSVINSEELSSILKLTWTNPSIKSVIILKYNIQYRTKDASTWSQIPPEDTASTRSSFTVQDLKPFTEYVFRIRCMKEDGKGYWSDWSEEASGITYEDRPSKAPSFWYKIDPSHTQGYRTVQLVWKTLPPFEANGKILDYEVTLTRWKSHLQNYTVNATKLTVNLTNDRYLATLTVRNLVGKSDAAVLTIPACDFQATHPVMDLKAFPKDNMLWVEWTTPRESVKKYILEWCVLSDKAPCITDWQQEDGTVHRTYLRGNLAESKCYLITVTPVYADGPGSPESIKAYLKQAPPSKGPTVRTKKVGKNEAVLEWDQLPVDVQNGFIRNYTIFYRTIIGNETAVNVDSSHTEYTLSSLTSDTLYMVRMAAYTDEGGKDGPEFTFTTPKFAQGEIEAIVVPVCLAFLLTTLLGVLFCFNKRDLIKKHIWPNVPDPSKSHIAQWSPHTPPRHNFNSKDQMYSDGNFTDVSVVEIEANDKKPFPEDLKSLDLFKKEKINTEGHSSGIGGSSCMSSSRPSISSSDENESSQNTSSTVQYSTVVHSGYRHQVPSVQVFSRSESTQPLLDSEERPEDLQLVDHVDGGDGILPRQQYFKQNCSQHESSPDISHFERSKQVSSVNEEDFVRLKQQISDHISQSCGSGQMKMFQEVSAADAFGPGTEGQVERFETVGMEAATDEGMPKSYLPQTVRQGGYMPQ

B1: c19s130Fc (Fc fusion)
chain: ELLDPCGYISPESPVVQLHSNFTAVCVLKEKCMDYFHVNANYIVWKTNHFTIPKEQYTIINRTASSVTFTDIASLNIQLTCNILTFGQLEQNVYGITIISGLPPEKPKNLSCIVNEGKKMRCEWDGGRETHLETNFTLKSEWATHKFADCKAKRDTPTSCTVDYSTVYFVNIEVWVEAENALGKVTSDHINFDPVYKVKPNPPHNLSVINSEELSSILKLTWTNPSIKSVIILKYNIQYRTKDASTWSQIPPEDTASTRSSFTVQDLKPFTEYVFRIRCMKEDGKGYWSDWSEEASGITYEDDVQFVESGGGSVHAGGSLRLNCATSGYIYSTYCMGWFRQAPGKEREGVAHIYTNSGRTYYADSVKGRFTISQDNAKNTVYLQMNSLKPEDTAIYYCAARPSIRCASFSATEYKDWGQGTQVTVSSTGGGGSGGGGSGGGGTGQVQLQESGGGLVQAGGSLRLSCAASGRTFSEYAMGWFRQAPGKEREFVATISWSGGSTYYTDSVKGRFTISRDNAKNTVYLQMNSLKPDDTAVYYCAAAGLGTVVSEWDYDYDYWGQGTQVTVSS
With B1 the Kd was 0.055 nM and the koff was 7.1e-05 s⁻¹.
